Numbering of substitutions follows the chain as printed. In names and notes the source's numbering stands. Values belong to the binder of their own block, whether it stands above or below them.
Target: FGFR1c, P11362
Assay: cell-based or functional assay

Chain of FGFR1c, P11362 (P11362 22-822): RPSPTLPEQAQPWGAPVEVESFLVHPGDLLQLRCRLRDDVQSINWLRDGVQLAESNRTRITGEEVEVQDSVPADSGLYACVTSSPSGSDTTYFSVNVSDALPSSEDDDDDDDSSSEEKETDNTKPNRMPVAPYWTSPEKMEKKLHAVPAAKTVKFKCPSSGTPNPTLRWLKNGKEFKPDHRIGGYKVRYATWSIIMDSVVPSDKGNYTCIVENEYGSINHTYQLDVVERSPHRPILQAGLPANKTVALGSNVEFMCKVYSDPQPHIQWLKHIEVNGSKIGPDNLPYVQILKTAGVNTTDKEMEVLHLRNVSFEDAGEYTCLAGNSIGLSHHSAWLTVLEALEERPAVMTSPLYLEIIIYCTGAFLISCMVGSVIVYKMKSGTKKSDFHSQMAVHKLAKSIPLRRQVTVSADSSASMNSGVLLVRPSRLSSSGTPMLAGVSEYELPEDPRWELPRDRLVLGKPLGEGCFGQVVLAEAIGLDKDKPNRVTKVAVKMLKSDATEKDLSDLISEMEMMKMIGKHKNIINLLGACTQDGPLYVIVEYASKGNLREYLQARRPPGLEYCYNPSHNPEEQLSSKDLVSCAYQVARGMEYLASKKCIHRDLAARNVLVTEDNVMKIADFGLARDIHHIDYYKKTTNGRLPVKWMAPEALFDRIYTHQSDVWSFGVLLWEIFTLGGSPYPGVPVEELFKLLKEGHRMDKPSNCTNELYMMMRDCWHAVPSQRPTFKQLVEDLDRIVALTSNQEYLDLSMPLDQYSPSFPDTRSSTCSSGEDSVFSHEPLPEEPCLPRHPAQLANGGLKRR

EC50(nM), dual-luciferase reporter gene assay, iLite FGF21 assay ready cells: 0.25 nM
B1: Human mature FGF21 mutant RGE (FGF21RGE), Q9NSA1 29-209 (ligand)
chain: HPIPDSSPLLQFGGQVRQRYLYTDDAQQTEAHLEIREDGTVGGAADQSPESLLQLKALKPGVIQILGVKTSRFLCQRPDGALYGSLHFDPEACSFRERLLEDGYNVYQSEAHGLPLHLPGNKSPHRDPAPRGPARFLPLPGLPPAPPEPPGILAPQPPDVGSSDPLSMVGGSQGRSPSYES

EC50(nM), dual-luciferase reporter gene assay, iLite FGF21 assay ready cells: 1.99 nM
B2: Compound 5.2, Q9NSA1 29-209 (ligand)
chain: B1 chain with D38C
modifications: here or on the partner: Cys 38 (D38C) carries the albumin-binding agent of Example 2.1, C18 Dicarboxylic Acid-AEEA-gGlu-gGlu-Lys(bromoacetyl)-COOH (bromine displaced by the thiol)

EC50(nM), dual-luciferase reporter gene assay, iLite FGF21 assay ready cells: 0.28 nM
B3: Human mature FGF21 mutant H125C (FGF21H125C), Q9NSA1 29-209 (ligand)
chain: B1 chain with H125C

EC50(nM), dual-luciferase reporter gene assay, iLite FGF21 assay ready cells: 0.99 nM
B4: Compound 5.4, Q9NSA1 29-209 (ligand)
chain: B1 chain with K122C
modifications: here or on the partner: Cys 122 (K122C) carries the albumin-binding agent of Example 2.1, C18 Dicarboxylic Acid-AEEA-gGlu-gGlu-Lys(bromoacetyl)-COOH (bromine displaced by the thiol)

EC50(nM), dual-luciferase reporter gene assay, iLite FGF21 assay ready cells: 1.31 nM
B5: Human mature FGF21 mutant E30C (FGF21E30C), Q9NSA1 29-209 (ligand)
chain: B1 chain with E30C

EC50(nM), dual-luciferase reporter gene assay, iLite FGF21 assay ready cells: 2.69 nM
B6: Compound 5.10, Q9NSA1 29-209 (ligand)
chain: B1 chain with D46C
modifications: here or on the partner: Cys 46 (D46C) carries the albumin-binding agent of Example 2.3, C20 Dicarboxylic Acid-AEEA-gGlu-gGlu-Lys(bromoacetyl)-COOH (bromine displaced by the thiol)

EC50(nM), dual-luciferase reporter gene assay, iLite FGF21 assay ready cells: 1.06 nM
B7: Compound 5.7, Q9NSA1 29-209 (ligand)
chain: B1 chain with D46C
modifications: here or on the partner: Cys 46 (D46C) carries the albumin-binding agent of Example 2.2, C18 Dicarboxylic Acid-gGlu-AEEA-AEEA-Lys(bromoacetyl)-COOH (bromine displaced by the thiol)

EC50(nM), dual-luciferase reporter gene assay, iLite FGF21 assay ready cells: 0.52 nM
B8: Compound 5.5, Q9NSA1 29-209 (ligand)
chain: B1 chain with H125C
modifications: here or on the partner: Cys 125 (H125C) carries the albumin-binding agent of Example 2.1, C18 Dicarboxylic Acid-AEEA-gGlu-gGlu-Lys(bromoacetyl)-COOH (bromine displaced by the thiol)

EC50(nM), dual-luciferase reporter gene assay, iLite FGF21 assay ready cells: 0.28 nM
B9: Human mature FGF21 mutant D46C (FGF21D46C), Q9NSA1 29-209 (ligand)
chain: B1 chain with D46C

EC50(nM), dual-luciferase reporter gene assay, iLite FGF21 assay ready cells: 0.47 nM
B10: Compound 5.15, Q9NSA1 29-209 (ligand)
chain: B1 chain with H125C
modifications: here or on the partner: Cys 125 (H125C) carries the albumin-binding agent of Example 2.4, C20 Dicarboxylic Acid-gGlu-AEEA-AEEA-Lys(bromoacetyl)-COOH (bromine displaced by the thiol)

EC50(nM), dual-luciferase reporter gene assay, iLite FGF21 assay ready cells: 4.61 nM
B11: Compound 5.1, Q9NSA1 29-209 (ligand)
chain: B1 chain with E30C
modifications: here or on the partner: Cys 30 (E30C) carries the albumin-binding agent of Example 2.1, C18 Dicarboxylic Acid-AEEA-gGlu-gGlu-Lys(bromoacetyl)-COOH (bromine displaced by the thiol)

EC50(nM), dual-luciferase reporter gene assay, iLite FGF21 assay ready cells: 1.4 nM
B12: Compound 5.12, Q9NSA1 29-209 (ligand)
chain: B1 chain with H125C
modifications: here or on the partner: Cys 125 (H125C) carries the albumin-binding agent of Example 2.3, C20 Dicarboxylic Acid-AEEA-gGlu-gGlu-Lys(bromoacetyl)-COOH (bromine displaced by the thiol)

EC50(nM), dual-luciferase reporter gene assay, iLite FGF21 assay ready cells: 0.3 nM
B13: Human mature FGF21 mutant K122C (FGF21K122C), Q9NSA1 29-209 (ligand)
chain: B1 chain with K122C

EC50(nM), dual-luciferase reporter gene assay, iLite FGF21 assay ready cells: 2.09 nM
B14: Compound 5.11, Q9NSA1 29-209 (ligand)
chain: B1 chain with K122C
modifications: here or on the partner: Cys 122 (K122C) carries the albumin-binding agent of Example 2.3, C20 Dicarboxylic Acid-AEEA-gGlu-gGlu-Lys(bromoacetyl)-COOH (bromine displaced by the thiol)

EC50(nM), dual-luciferase reporter gene assay, iLite FGF21 assay ready cells: 0.24 nM
B15: Compound 5.3, Q9NSA1 29-209 (ligand)
chain: B1 chain with D46C
modifications: here or on the partner: Cys 46 (D46C) carries the albumin-binding agent of Example 2.1, C18 Dicarboxylic Acid-AEEA-gGlu-gGlu-Lys(bromoacetyl)-COOH (bromine displaced by the thiol)

EC50(nM), dual-luciferase reporter gene assay, iLite FGF21 assay ready cells: 1.02 nM
B16: Compound 5.14, Q9NSA1 29-209 (ligand)
chain: B1 chain with K122C
modifications: here or on the partner: Cys 122 (K122C) carries the albumin-binding agent of Example 2.4, C20 Dicarboxylic Acid-gGlu-AEEA-AEEA-Lys(bromoacetyl)-COOH (bromine displaced by the thiol)

EC50(nM), dual-luciferase reporter gene assay, iLite FGF21 assay ready cells: 1.13 nM
B17: Compound 5.8, Q9NSA1 29-209 (ligand)
chain: B1 chain with K122C
modifications: here or on the partner: Cys 122 (K122C) carries the albumin-binding agent of Example 2.2, C18 Dicarboxylic Acid-gGlu-AEEA-AEEA-Lys(bromoacetyl)-COOH (bromine displaced by the thiol)

EC50(nM), dual-luciferase reporter gene assay, iLite FGF21 assay ready cells: 2.06 nM
B18: Compound 5.6, Q9NSA1 29-209 (ligand)
chain: B1 chain with D38C
modifications: here or on the partner: Cys 38 (D38C) carries the albumin-binding agent of Example 2.2, C18 Dicarboxylic Acid-gGlu-AEEA-AEEA-Lys(bromoacetyl)-COOH (bromine displaced by the thiol)

EC50(nM), dual-luciferase reporter gene assay, iLite FGF21 assay ready cells: 1 nM
B19: Human mature FGF21 mutant D38C (FGF21D38C), Q9NSA1 29-209 (ligand)
chain: B1 chain with D38C

EC50(nM), dual-luciferase reporter gene assay, iLite FGF21 assay ready cells: 1.18 nM
B20: Compound 5.9, Q9NSA1 29-209 (ligand)
chain: B1 chain with H125C
modifications: here or on the partner: Cys 125 (H125C) carries the albumin-binding agent of Example 2.2, C18 Dicarboxylic Acid-gGlu-AEEA-AEEA-Lys(bromoacetyl)-COOH (bromine displaced by the thiol)

EC50(nM), dual-luciferase reporter gene assay, iLite FGF21 assay ready cells: 1.84 nM
B21: Compound 5.13, Q9NSA1 29-209 (ligand)
chain: B1 chain with D46C
modifications: here or on the partner: Cys 46 (D46C) carries the albumin-binding agent of Example 2.4, C20 Dicarboxylic Acid-gGlu-AEEA-AEEA-Lys(bromoacetyl)-COOH (bromine displaced by the thiol)
